Experimental data taken from patent US20250027068A1 (published 2025).

target: pooled human IgG (human); assay: cell-based or functional assay
Further: test concentration or dose not given here.

Row | Binder | Enzyme Activity Endpoint Assay (purified): Fab′2 | Enzyme Activity Endpoint Assay (purified): Fc | Enzyme Activity Endpoint Assay (purified): IgG | Enzyme Activity Endpoint Assay (purified): scIgG
1 | PRT-209 (enzyme) MEVVEVWPYGQNPNGKTEILSQTEDSESLQRLRDIEDFQAEKKKQGVVYTKWLDGVDVDDHDFRKIVDGNIAYYATPLLNGKGFYDINKDFNRDSDKCAAAVAANMFHYWLDQNRDNVDRFLRQNPEKHGIIELPDGQLKLSDFLNTYESDNGYRDKSKLFDFISNNFNGPVWTDKLLDNYINGYAYNYKYGRTIEDPTKNTSKINFFKDVFNEKILTNIHSIRNYNTFSNLLSEALYTGKAIGLSYGPAGLRHSLGHIISVWGADLDEDGNVVAIYVTDSDDKKLTIGDERVGLKRYKISTDDEGRARLTAYEENDNTGGEIRGLYTLDTGKQAWADYFDKTEQTGTDQAEQLEHHHHHH | 0 ng/µL | 124 ng/µL | 1670 ng/µL | 71 ng/µL
2 | PRT-206 (enzyme) MEVVEVWPYGQNPNGKTEILSQTEDSESLQRLRDIEDFQAEKKKENVVYTKWLDGVTVKDHDFRKIVDGNIAYYATPLLNGRGFYDINKDFNRDSDKCAAAVAANMFHYWLDINRDNVDRFLRQNPEKHGIIELPDGQLKLSDFLNTYESDDGYRDKSKLFDFISNNFNGPVWTDKLLDNYINGYGYNYKYGRTIEDPTKNTSKINFFKEVFNEKILTDNHSIRDQNEFSDLLSEALYTGKAIGLSYGPAGLRHSLGHIISVWGADLDADGNVVAIYVTDSDDKKLTIGDERVGLKRYKISYDDEGRARLTAYEEKDNTGGQIRGLYTLDTGKQAWADYFDKTEQTGTDQAEQLEHHHHHH | 570 ng/µL | 0 ng/µL | 2130 ng/µL | 0 ng/µL
3 | PRT-208 (enzyme) MEVVEVWPYGQNPNGKTEILSQTEDSESLQRLRDIEDFQAEKKKENVVYTKWLDGVTVKDHDFRKIVDGNIAYYATPLLNGRGFYDINKDFNRDSDKCAAAVAANMFHYWLDINRDNVDRFLRQNPEKHGIIELPDGQLKLSDFLNTYESDDGYRDKSKLFDFISNNFNGPVWTDKLLDNYINGYGYNYKYGRTIEDPTKNTSKINFFKEVFNEKILTDNHSIRDQNEFSDLLSEALYTGKAIGLSYGPAGLRHSLGHIISVWGADLDADGNVVAIYVTDSDDKKLTIGDERVGLKRYKISYDDEGRARLTAYEEKDNTGGQIRGLWTLDTGKQAWADYFDKTEQTGTDQAEQLEHHHHHH | 0 ng/µL | 153 ng/µL | 1700 ng/µL | 113 ng/µL
4 | PRT-207 (enzyme) MEVVEVWPYGQNPNGKTEILSQTEDSESLQRLRDIEDFQAEKKKEGVVYTKWLDGVDVDDHDFRKIVDGNIAYYATPLLNGRGFYDINKDFNRDSDKCAAAVAANMFHYWLDRNRDNVDRFLKQNPEKHGIIELPDGQLKLSDFLNTYESDNGYRDKSKLFDFISNNFNGPVWTDKLLDNYINGYAYNYKYGRTIEDPTKNTSKINFFKEVFNEKILTNNHSIRNYNTFSDLLSEALYTGKAIGLSYGPAGLRHSLGHIISVWGADLDADGNVVAIYVTDSDDKKLTIGDERVGLKRYKVSSDDENRLRLTAYEETHNTGGQIRGIWTLDTGKQAWADYFDKTEQTGTDQAEQLEHHHHHH | 0 ng/µL | 249 ng/µL | 1290 ng/µL | 287 ng/µL
